This passage reports Km results from PMC12362244, “Fidelity, specialization, and evolution of Paramecium PolX DNA polymerases involved in programmed double-strand break DNA repair” (Nucleic Acids Research, 2025).

Assay in all cases: steady-state single-nucleotide gap-filling, FAM-primer urea-PAGE, Michaelis-Menten fit
What all share (details): 1 µM gap-filling DNA (continuous template), 5 nM enzyme, 5 mM MgCl2, pH 7.5, 27°C

Substrate in series [1]: Nc1nc2c(ncn2[C@H]2C[C@H](O)[C@@H](COP(=O)(O)OP(=O)(O)OP(=O)(O)O)O2)c(=O)[nH]1
Type of series: biochemical, Homo sapiens. The text has this: steady-state single-nucleotide gap-filling, FAM-primer urea-PAGE, Michaelis-Menten fit on Polλxt | all mutants underwent steady-state characterization in gap-filling context (Fig. 4B and C)

Substrate in series [2]: Nc1nc2c(ncn2[C@H]2C[C@H](O)[C@@H](COP(=O)(O)OP(=O)(O)OP(=O)(O)O)O2)c(=O)[nH]1
Type of series: biochemical, Homo sapiens. The text has this:
steady-state single-nucleotide gap-filling, FAM-primer urea-PAGE, Michaelis-Menten fit on Polλxt | despite an almost normal KM in the […] range
The source holds these as a separate data set.

Substrate in series [3]: Nc1nc2c(ncn2[C@H]2C[C@H](O)[C@@H](COP(=O)(O)OP(=O)(O)OP(=O)(O)O)O2)c(=O)[nH]1
Type of series: biochemical, Paramecium.

Substrate in series [4]: Nc1nc2c(ncn2[C@H]2C[C@H](O)[C@@H](COP(=O)(O)OP(=O)(O)OP(=O)(O)O)O2)c(=O)[nH]1
In kind it is biochemical, Homo sapiens. This is another data set of the same source.

B1: Polλxt (Homo sapiens; C543A/DEL464-472/INS464KGET) (protein)
chain: AQPSSQKATNHNLHITEKLEVLAKAYSVQGDKWRALGYAKAINALKSFHKPVTSYQEACSIPGIGKRMAEKIIEILESGHLRKLDHISESVPVLELFSNIWGAGTKTAQMWYQQGFRSLEDIRSQASLTTQQAIGLKHYSDFLERMPREEATEIEQTVQKAAQAFNSGLLCVACGSYRRGKATCGDVDVLITHPDGRSHRGIFSRLLDSLRQEGFLTDDLVSKGETYLGVCRLPGPGRRHRRLDIIVVPYSEFACALLYFTGSAHFNRSMRALAKTKGMSLSEHALSTAVVRNTHGAKVGPGRVLPTPTEKDVFRLLGLPYREPAERDW
notes: Δ1-241; Loop1 residues 464-472 replaced by KGET of Polβ; cleavable N-terminal 14-His tag; E. coli
In the case of B1, the Km in series [1] is reported as 1893 (949.4 - 4602.0) nM.

B2: Polλxt (Homo sapiens; C543A/DEL464-472/H530Y/I492R/INS464KGET/S528N) (protein)
chain: AQPSSQKATNHNLHITEKLEVLAKAYSVQGDKWRALGYAKAINALKSFHKPVTSYQEACSIPGIGKRMAEKIIEILESGHLRKLDHISESVPVLELFSNIWGAGTKTAQMWYQQGFRSLEDIRSQASLTTQQAIGLKHYSDFLERMPREEATEIEQTVQKAAQAFNSGLLCVACGSYRRGKATCGDVDVLITHPDGRSHRGIFSRLLDSLRQEGFLTDDLVSKGETYLGVCRLPGPGRRHRRLDIRVVPYSEFACALLYFTGSAHFNRSMRALAKTKGMSLNEYALSTAVVRNTHGAKVGPGRVLPTPTEKDVFRLLGLPYREPAERDW
notes: as for B1
With B2, in series [2], the Km was 849.9 (587.8 - 1277.0) nM.

B3: Polλxt (Homo sapiens; C543A/DEL464-472/E529D/I492K/INS464KGET) (protein)
chain: AQPSSQKATNHNLHITEKLEVLAKAYSVQGDKWRALGYAKAINALKSFHKPVTSYQEACSIPGIGKRMAEKIIEILESGHLRKLDHISESVPVLELFSNIWGAGTKTAQMWYQQGFRSLEDIRSQASLTTQQAIGLKHYSDFLERMPREEATEIEQTVQKAAQAFNSGLLCVACGSYRRGKATCGDVDVLITHPDGRSHRGIFSRLLDSLRQEGFLTDDLVSKGETYLGVCRLPGPGRRHRRLDIKVVPYSEFACALLYFTGSAHFNRSMRALAKTKGMSLSDHALSTAVVRNTHGAKVGPGRVLPTPTEKDVFRLLGLPYREPAERDW
notes: as for B1
As for B3, the Km in series [3] is listed as 399.3 (247.1 - 607.0) nM.

B4: Polλxt (Homo sapiens; C543A/DEL464-472/I492K/INS464KGET) (protein)
chain: AQPSSQKATNHNLHITEKLEVLAKAYSVQGDKWRALGYAKAINALKSFHKPVTSYQEACSIPGIGKRMAEKIIEILESGHLRKLDHISESVPVLELFSNIWGAGTKTAQMWYQQGFRSLEDIRSQASLTTQQAIGLKHYSDFLERMPREEATEIEQTVQKAAQAFNSGLLCVACGSYRRGKATCGDVDVLITHPDGRSHRGIFSRLLDSLRQEGFLTDDLVSKGETYLGVCRLPGPGRRHRRLDIKVVPYSEFACALLYFTGSAHFNRSMRALAKTKGMSLSEHALSTAVVRNTHGAKVGPGRVLPTPTEKDVFRLLGLPYREPAERDW
notes: as for B1
Consider B4, for which, in series [4], the Km is given as 494.7 (237.7 - 937.3) nM.
